We go through one molecule from paper PMC4801485 (Biochemistry, 2015).

Assay in all cases: NMR line shape analysis
For one assay, the target named is human Cyclophilin A (human, UniProt P62937 1-165).
The target of assay [1] is cyclophilin domain of human Cyclophilin C (residues 25-212) (human, UniProt P45877 25-212).
Assay [2] addresses cyclophilin domain of human Cyclophilin B (residues 39-216) (human, UniProt P23284 39-216).

cyclophilin domain of human Cyclophilin B (residues 39-216), sequence (P23284 39-216): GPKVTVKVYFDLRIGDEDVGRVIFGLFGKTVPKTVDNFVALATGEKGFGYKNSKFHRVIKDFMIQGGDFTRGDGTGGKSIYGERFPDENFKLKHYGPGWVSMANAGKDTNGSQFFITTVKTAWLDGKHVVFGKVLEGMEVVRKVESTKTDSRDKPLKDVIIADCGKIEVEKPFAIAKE
cyclophilin domain of human Cyclophilin C (residues 25-212), sequence (P45877 25-212): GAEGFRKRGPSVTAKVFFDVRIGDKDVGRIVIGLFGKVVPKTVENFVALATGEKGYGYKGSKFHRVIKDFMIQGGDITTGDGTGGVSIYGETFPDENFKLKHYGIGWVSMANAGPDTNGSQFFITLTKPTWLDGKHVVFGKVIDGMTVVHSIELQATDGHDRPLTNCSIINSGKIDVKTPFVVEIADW
human Cyclophilin A, sequence (P62937 whole entry, the tested form may be a part): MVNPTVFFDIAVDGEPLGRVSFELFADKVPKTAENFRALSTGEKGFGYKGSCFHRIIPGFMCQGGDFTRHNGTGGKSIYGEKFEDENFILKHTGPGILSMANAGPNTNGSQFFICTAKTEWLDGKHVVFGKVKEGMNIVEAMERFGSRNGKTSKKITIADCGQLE

B1: peptide substrate GSFGPDLRAGD (peptide)
peptide: GSFGPDLRAGD
Regarding B1, in the assay with human Cyclophilin A, the “koff of the cis isomer (kCD)” value came to 170 s⁻¹, the “koff of the trans isomer (kBA)” value is 550 s⁻¹, the “kon of the cis isomer (kDC)” value is 1e+07 M⁻¹ s⁻¹ and the “kon of the trans isomer (kAB)” value stood at 3.2e+06 M⁻¹ s⁻¹. Further, in assay [1], the “koff of the cis isomer (kCD)” value is 260 s⁻¹, the “koff of the trans isomer (kBA)” value amounted to 1620 s⁻¹, the “kon of the cis isomer (kDC)” value came out at 7.9e+06 M⁻¹ s⁻¹ and the “kon of the trans isomer (kAB)” value was found to be 4.2e+06 M⁻¹ s⁻¹. Further, in assay [2], the “koff of the cis isomer (kCD)” value is 200 s⁻¹, the “koff of the trans isomer (kBA)” value stood at 960 s⁻¹, the “kon of the cis isomer (kDC)” value amounted to 4.9e+06 M⁻¹ s⁻¹ and the “kon of the trans isomer (kAB)” value was determined as 2.1e+06 M⁻¹ s⁻¹.
